Tests used:
[1] = target: the molecule itself; assay: native gel or EMSA + other: negative stain electron microscopy; purified Kv1.3 in Fos-12 or amphipol A8-35 on a 4-16 % native gel; negative stain EM with 2D class averages of Kv1.3 in A8-35; tetramer
[2] = target: T1, Sec24a^341 (Sec24a lacking the first 341 residues) (human, UniProt O95486 342-1093); assay: membrane flotation assay; 15 ug Sec24a^341 incubated with 15 ug Kv1.3 proteoliposomes (DOPC:DOPS 95:5) in 25 mM Tris, 150 mM NaCl, 160 mM KOAc, 1 mM MgOAc, pH 7.5, 30 % sucrose, 32 °C for 1 h; overlaid with 25 % and 0 % sucrose, 200,000 g for 1 h at 4 °C; fractions read by Western blot; conditions: both partners purified
T1 construct: Sec24a, COPII cargo adaptor subunit, human; ~80 kDa; source: Hi5 insect cells (baculovirus), purified (HisPur Cobalt resin, Superose 6)
T1 sequence (looked up): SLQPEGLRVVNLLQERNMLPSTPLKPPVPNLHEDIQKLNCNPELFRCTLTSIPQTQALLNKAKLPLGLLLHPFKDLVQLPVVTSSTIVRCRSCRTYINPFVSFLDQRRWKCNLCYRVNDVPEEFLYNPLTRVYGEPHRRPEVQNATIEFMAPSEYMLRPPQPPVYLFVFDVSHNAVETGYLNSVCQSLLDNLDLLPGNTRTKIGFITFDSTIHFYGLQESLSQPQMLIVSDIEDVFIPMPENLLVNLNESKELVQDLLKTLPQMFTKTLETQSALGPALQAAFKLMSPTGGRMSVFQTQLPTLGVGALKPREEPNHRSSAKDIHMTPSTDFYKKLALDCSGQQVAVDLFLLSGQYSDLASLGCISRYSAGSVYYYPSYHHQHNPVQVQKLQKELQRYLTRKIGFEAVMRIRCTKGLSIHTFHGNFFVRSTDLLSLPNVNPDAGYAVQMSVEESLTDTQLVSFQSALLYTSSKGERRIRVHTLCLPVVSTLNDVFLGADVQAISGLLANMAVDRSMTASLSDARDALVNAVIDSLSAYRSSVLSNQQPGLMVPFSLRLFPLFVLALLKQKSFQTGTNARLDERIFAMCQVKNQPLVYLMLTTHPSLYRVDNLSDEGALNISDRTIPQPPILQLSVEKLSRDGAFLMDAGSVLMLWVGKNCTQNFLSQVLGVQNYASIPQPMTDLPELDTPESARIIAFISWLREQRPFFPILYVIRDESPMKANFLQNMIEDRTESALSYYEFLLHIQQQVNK

B1: Kv1.3 (mouse Shaker-type voltage-gated potassium channel subfamily member 3), recombinant, His6-tagged (natural protein, UniProt P16390 1-528, looked up)
chain: MTVVPGDHLLEPEAAGGGGGDPPQGGCGSGGGGGGCDRYEPLPPALPAAGEQDCCGERVVINISGLRFETQLKTLCQFPETLLGDPKRRMRYFDPLRNEYFFDRNRPSFDAILYYYQSGGRIRRPVNVPIDIFSEEIRFYQLGEEAMEKFREDEGFLREEERPLPRRDFQRQVWLLFEYPESSGPARGIAIVSVLVILISIVIFCLETLPEFRDEKDYPASPSQDVFEAANNSTSGAPSGASSFSDPFFVVETLCIIWFSFELLVRFFACPSKATFSRNIMNLIDIVAIIPYFITLGTELAERQGNGQQAMSLAILRVIRLVRVFRIFKLSRHSKGLQILGQTLKASMRELGLLIFFLFIGVILFSSAVYFAEADDPSSGFNSIPDAFWWAVVTMTTVGYGDMHPVTIGGKIVGSLCAIAGVLTIALPVPVIVSNFNYFYHRETEGEEQAQYMHVGSCQHLSSSAEELRKARSNSTLSKSEYMVIEEGGMNHSAFPQTPFKTGNSTATCTTNNNPNSCVNIKKIFTDV
modifications: phosphorylated, sites not stated (non-dephosphorylated tetramers were used for reconstitution)
notes: Kv1.3, mouse; wild type cDNA cut from Kv1.3-pcDNA3 at the Nco and Kpn sites and ligated into pFastbac HT; Integral membrane protein; a monomer runs at ~65 kDa; No TEV cleavage of the tag is described; also called Kv1.3 tetramers; Kv1.3 proteoliposomes; source: Hi5 insect cells (baculovirus), purified (cobalt Chelating Sepharose, Superose 6) in Fos-12; reconstituted into DOPC:DOPS proteoliposomes, …
- stoichiometry N [1]: 4
- binding result [2]: binds

Reference: publication PMC4497498, “Kv1.3 contains an alternative C-terminal ER exit motif and is recruited into COPII vesicles by Sec24a” (BMC Biochemistry, 2015)
